Key:
[1] = molecular target: human B7-H2, full length, expressed on cells (B7-H2+293T cells) (human) (UniProt O75144); assay: cell-based or functional assay
[2] = molecular target: T1, B7-DCIg (Mus musculus, UniProt Q9WUL5); assay: CDS well image, 293T cells transfected with the mouse gene, stained with the mouse fusion protein
T1 construct: Ig fusion protein purchased from R&D systems; also called mouse B7-DCIg fusion protein
T1 sequence (fusion protein, looked up): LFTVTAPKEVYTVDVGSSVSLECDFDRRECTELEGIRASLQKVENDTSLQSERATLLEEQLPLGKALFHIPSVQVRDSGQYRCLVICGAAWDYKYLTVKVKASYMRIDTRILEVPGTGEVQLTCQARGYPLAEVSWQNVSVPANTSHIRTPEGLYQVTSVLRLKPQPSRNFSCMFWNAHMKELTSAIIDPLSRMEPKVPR

[3] = molecular target: T2, PD-1Ig (Mus musculus, UniProt Q02242); assay: as above
T2 construct: Ig fusion protein purchased from R&D systems; also called mouse PD-1Ig fusion protein
T2 sequence (fusion protein, looked up): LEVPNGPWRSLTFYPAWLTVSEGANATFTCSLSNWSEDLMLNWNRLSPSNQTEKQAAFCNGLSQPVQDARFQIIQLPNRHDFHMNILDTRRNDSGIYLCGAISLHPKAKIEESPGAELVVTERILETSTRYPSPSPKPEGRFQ

[4] = molecular target: T3, ICOSIg (Mus musculus, UniProt Q9WVS0); assay: as above
T3 construct: Ig fusion protein purchased from R&D systems; also called mouse ICOSIg fusion protein
T3 sequence (fusion protein, looked up): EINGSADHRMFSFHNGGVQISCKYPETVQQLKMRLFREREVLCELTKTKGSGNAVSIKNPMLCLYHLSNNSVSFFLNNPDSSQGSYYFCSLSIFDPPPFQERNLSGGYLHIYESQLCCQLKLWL

[5] = molecular target: T4, B7-H1Ig (Mus musculus, UniProt Q9EP73); assay: as above
T4 construct: Ig fusion protein purchased from R&D systems; also called mouse B7-H1Ig fusion protein
T4 sequence (Q9EP73 19-238 limits assumed): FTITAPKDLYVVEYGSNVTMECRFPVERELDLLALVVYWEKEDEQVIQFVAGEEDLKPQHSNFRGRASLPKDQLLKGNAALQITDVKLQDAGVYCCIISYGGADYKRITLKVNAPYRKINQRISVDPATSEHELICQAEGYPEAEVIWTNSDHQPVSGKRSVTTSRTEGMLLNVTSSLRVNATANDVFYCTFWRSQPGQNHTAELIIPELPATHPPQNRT

[6] = molecular target: T5, B7-H2Ig (Mus musculus, UniProt Q9JHJ8); assay: as above
T5 construct: Ig fusion protein purchased from R&D systems; also called mouse B7-H2Ig fusion protein
T5 sequence (fusion protein, looked up): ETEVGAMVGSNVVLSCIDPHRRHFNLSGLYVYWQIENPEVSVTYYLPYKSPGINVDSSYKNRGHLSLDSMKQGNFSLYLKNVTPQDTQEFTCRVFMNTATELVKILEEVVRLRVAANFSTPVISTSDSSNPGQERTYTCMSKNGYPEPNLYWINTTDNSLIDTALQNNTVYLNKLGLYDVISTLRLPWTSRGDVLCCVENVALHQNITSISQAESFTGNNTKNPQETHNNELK

[7] = molecular target: T6, mouse CD28Ig fusion protein (mouse, UniProt P31041 20-149); assay: as above
T6 construct: Bought from R&D Systems; Ig (Fc) part not given
T6 sequence (looked up): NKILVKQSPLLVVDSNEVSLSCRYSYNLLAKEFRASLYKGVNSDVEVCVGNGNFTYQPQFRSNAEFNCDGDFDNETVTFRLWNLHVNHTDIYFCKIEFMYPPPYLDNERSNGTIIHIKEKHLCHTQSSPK

[8] = molecular target: T7, mouse CTLA-4Ig fusion protein (mouse, UniProt P09793 36-162); assay: as above
T7 construct: Bought from R&D Systems; Ig (Fc) part not given

[9] = molecular target: T8, human B7-H2, full length, expressed on cells (B7-H2+293T cells) (human, UniProt O75144 19-302); assay: CDS well image, 293T cells transfected with the human gene, stained with the human fusion protein
T8 construct: This id also stands for endogenous B7-H2 on monocyte-derived dendritic cells in the functional rows; also called ICOSL; ICOSLG
T8 sequence: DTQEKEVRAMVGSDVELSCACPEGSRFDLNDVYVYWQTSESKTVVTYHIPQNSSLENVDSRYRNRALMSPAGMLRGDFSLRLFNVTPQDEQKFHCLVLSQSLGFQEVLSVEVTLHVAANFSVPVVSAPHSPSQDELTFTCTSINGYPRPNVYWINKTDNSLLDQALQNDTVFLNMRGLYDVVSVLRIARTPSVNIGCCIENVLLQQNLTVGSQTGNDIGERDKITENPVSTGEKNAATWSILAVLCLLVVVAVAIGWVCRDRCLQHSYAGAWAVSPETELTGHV

[10] = molecular target: T9, human B7-2 (CD86, B70) expressed on 293T cells (human, UniProt P42081 24-329); assay: as above
T9 construct: whole, on cells
T9 sequence (looked up): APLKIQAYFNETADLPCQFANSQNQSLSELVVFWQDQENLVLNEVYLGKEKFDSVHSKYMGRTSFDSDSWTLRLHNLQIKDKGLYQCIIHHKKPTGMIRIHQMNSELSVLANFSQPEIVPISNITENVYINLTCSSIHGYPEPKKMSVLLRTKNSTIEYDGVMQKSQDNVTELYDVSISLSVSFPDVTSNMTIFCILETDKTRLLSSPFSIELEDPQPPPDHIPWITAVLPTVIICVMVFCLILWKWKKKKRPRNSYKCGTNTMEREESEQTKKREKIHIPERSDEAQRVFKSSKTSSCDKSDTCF

[11] = molecular target: T10, human B7-H1 expressed on 293T cells (human, UniProt Q9NZQ7 19-290); assay: as above
T10 construct: whole, on cells
T10 sequence (Q9NZQ7 19-290): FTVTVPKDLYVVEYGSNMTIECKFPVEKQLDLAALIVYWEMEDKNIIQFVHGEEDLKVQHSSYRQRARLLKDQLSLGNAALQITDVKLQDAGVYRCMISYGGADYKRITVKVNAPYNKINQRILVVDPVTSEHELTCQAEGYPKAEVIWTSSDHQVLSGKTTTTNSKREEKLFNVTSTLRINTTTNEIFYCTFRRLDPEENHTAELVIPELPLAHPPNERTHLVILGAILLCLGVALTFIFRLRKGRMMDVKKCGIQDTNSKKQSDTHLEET

[12] = molecular target: T11, human B7-DC expressed on 293T cells (human, UniProt Q9BQ51 20-273); assay: as above
T11 construct: whole, on cells
T11 sequence (looked up): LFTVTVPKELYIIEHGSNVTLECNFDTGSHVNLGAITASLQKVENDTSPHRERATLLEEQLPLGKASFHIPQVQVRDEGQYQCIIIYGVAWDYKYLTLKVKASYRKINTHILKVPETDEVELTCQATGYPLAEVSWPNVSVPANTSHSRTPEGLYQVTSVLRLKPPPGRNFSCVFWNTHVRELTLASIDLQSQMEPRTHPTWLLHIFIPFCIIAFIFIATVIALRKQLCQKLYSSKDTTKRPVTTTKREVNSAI

[13] = molecular target: T12, human CD28, full length, expressed on cells (CD28+293T cells) (human, UniProt P10747 19-220); assay: as above
T12 construct: This id also stands for CD28 on purified human T cells in the functional rows; also called CD28+ cells
T12 sequence (P10747 19-220): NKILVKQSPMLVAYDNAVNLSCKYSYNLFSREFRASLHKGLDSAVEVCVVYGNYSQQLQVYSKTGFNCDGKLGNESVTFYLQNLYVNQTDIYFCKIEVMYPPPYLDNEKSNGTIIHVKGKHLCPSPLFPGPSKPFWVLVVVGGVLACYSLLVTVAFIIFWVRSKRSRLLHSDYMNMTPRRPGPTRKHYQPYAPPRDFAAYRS

[14] = molecular target: T13, human B7-1 (CD80) expressed on 293T cells (human, UniProt P33681 35-288); assay: as above
T13 construct: whole, on cells
T13 sequence (looked up): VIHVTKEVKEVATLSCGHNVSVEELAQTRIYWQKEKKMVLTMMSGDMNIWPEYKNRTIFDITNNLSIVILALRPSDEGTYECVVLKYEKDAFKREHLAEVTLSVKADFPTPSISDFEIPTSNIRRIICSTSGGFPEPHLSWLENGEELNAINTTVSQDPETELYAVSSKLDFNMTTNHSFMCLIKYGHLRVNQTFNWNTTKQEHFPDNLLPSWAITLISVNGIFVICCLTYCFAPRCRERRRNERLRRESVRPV

mouse anti-human B7-H2 mAb 9F.8A4 (antibody)
tetanus toxoid-elicited IFNγ production of memory T cells; inhibition [1]: > 90% | tetanus toxoid-elicited proliferation of memory T cells; inhibition [1]: > 50%

B1: B7-2 (ligand)
chain: VSVETQAYFNGTAYLPCPFTKAQNISLSELVVFWQDQQKLVLYEHYLGTEKLDSVNAKYLGRTSFDRNNWTLRLHNVQIKDMGSYDCFIQKKPPTGSIILQQTLTELSVIANFSEPEIKLAQNVTGNSGINLTCTSKQGHPKPKKMYFLITNSTNEYGDNMQISQDNVTELFSISNSLSLSFPDGVWHMTVVCVLETESMKISSKPLNFTQEFPSPQTYWKEITASVTVALLLVMLLIIVCHKKPNQPSRPSNTASKLERDSNADRETINLKELEPQIASAKPNAE
binding result [2]: no binding | binding result [3]: no binding | binding result [4]: no binding | binding result [5]: no binding | binding result [6]: no binding | binding result [7]: binds | binding result [8]: binds

B2: B7-DCIg (Fc fusion, Homo sapiens, UniProt Q9BQ51 20-219, looked up)
fusion protein: LFTVTVPKELYIIEHGSNVTLECNFDTGSHVNLGAITASLQKVENDTSPHRERATLLEEQLPLGKASFHIPQVQVRDEGQYQCIIIYGVAWDYKYLTLKVKASYRKINTHILKVPETDEVELTCQATGYPLAEVSWPNVSVPANTSHSRTPEGLYQVTSVLRLKPPPGRNFSCVFWNTHVRELTLASIDLQSQMEPRTHP
notes: Ig fusion protein purchased from R&D systems; also called human B7-DCIg fusion protein
binding result [9]: no binding | binding result [10]: no binding | binding result [11]: no binding | binding result [12]: no binding | binding result [13]: no binding | binding result [14]: no binding

B3: B7-DC (ligand, Mus musculus, UniProt Q9WUL5 20-247, looked up)
membrane protein: LFTVTAPKEVYTVDVGSSVSLECDFDRRECTELEGIRASLQKVENDTSLQSERATLLEEQLPLGKALFHIPSVQVRDSGQYRCLVICGAAWDYKYLTVKVKASYMRIDTRILEVPGTGEVQLTCQARGYPLAEVSWQNVSVPANTSHIRTPEGLYQVTSVLRLKPQPSRNFSCMFWNAHMKELTSAIIDPLSRMEPKVPRTWPLHVFIPACTIALIFLAIVIIQRKRI
binding result [6]: no binding

B4: B7-1 (ligand)
chain: VDEQLSKSVKDKVLLPCRYNSPHEDESEDRIYWQKHDKVVLSVIAGKLKVWPEYKNRTLYDNTTYSLIILGLVLSDRGTYSCVVQKKERGTYEVKHLALVKLSIKADFSTPNITESGNPSADTKRITCFASGGFPKPRFSWLENGRELPGINTTISQDPESELYTISSQLDFNTTRNHTIKCLIKYGDAHVSEDFTWEKPPEDPPDSKNTLVLFGAGFGAVITVVVIVVIIKCFCKHRSCFRRNEASRETNNSLTFGPEEALAEQTVFL
binding result [2]: no binding | binding result [3]: no binding | binding result [4]: no binding | binding result [5]: binds | binding result [6]: no binding | binding result [7]: binds | binding result [8]: binds

Reference: patent US20120219559A1 (Johns Hopkins, published 2012)
